Patent publication US20240191188A1

Molecular target: CD28 on the surface of T cells and PBMCs (human) (UniProt P10747)
Assay: flow cytometry of live CD3+ cells of the CD28 positive fraction after D-biotin and washing; remaining anti-CD28 Fab monomers were detected with an antibody against the Ig kappa light chain. The same antibody on cells before selection (negative control, no Fab) gives 2.73

% of cells within gate: 5.91%
Substance: αCD28 Fab fragment derived from the monoclonal anti-human CD28 antibody CD28.3, heavy chain carboxy-terminally fused to the Twin-Strep-tag (monomeric)
